Measured values taken from patent US20060088510A1 (BRIGHAM AND WOMEN S HOSPITAL, published 2006).
No end group written: not given here.

Target: T1, Streptavidin (UniProt P22629 37-163, limits assumed)
T1 construct: also called 35S-streptavidin; Radiolabeled Streptavidin (35S-SLR labeled)
Experiment: radioligand binding assay, 35S-streptavidin on 1:100 biotinylated:nonbiotinylated self-assembling peptides (1% w/v)
From the text: We have previously shown that biotinylated peptides can be synthesized and incorporated with self-assembling (Davis, et al., Circ Res 97: 8-15 (2005)). To allow sufficient distance from the peptide to allow streptavidin binding (Livnah, et al., Proc Natl Acad Sci USA 90:5076-5080 (1993); Pugliese, et al., J. Mol Biol 231:698-710 (1993)), the biotin was attached to the peptide by two N-e-Fmoc-e-aminocaproic acids.

T1 sequence (P22629 37-163 limits assumed): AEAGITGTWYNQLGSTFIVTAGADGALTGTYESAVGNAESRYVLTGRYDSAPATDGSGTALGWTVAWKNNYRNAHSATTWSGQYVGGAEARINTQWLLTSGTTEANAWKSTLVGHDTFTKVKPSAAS

B1: Biotinylated RAD16-II peptide (peptide)
peptide: RARADADARARADADA-NH2
modifications: not fully specified (N-terminus); also: biotin linked via 2 aminocaproic acid groups, attachment residue not given here
notes: Synthetic self-assembling peptide; In the assays it was mixed 1:100 with nonbiotinylated RAD16-II (1% final peptide weight/volume) and assembled into fibers; also called biotinylated self-assembling peptides; biotinylated peptides
- Kd: 190 nM
